# Data published in US20120122128A1.
# Substitutions are numbered along the chain they refer to.
# B1: α-SNAP-25 monoclonal antibody 2E2A6 (antibody)
# chain 1: QVQLQQSDAELVKPGASVKISCRASGYTFTDHSIHWVKQQPGQGLEWIGYIFPGNGNIEYNDKFKGKATLTADKSSGTAYMQLNSLTSEDSAVYFCKRMGYWGQGTSVTVSS
# chain 2: DVLMTQTPLTLSVTIGQPASISCKSSQSLLYTNGKTYLTWLFQRPGQSPKRLIYLVSELDSGVPDRFSGSGSGTDFTLEITRVEAEDLGVYYCLQSAHFPFTFGSGTKLEIKR
# B2: α-SNAP-25 monoclonal antibody 1D3B8 (antibody, V domains shown)
# VH: VKLQESGAELVKPGASVKISCKASGYIFTDHALHWVRQKPEQGLEWIGYIFPGNGNIEYNEKFKGKATLTADKSSSTAYMQLNSLTSGDSAMYFCKKMDYWGQGTTVTVSS
# VL: DVLMTQTPLSLPVSLGDQASISCRSSQSIVHSNGNTYLEWYLQKPGQSPKLLIYKVSNRFSGVPDRFSGSGSGTDFTLKISRVEAEDLGVYYCFQGSHVPPTFGAGTKLELKR
# B3: α-SNAP-25 monoclonal antibody 2C9B10 (antibody, V domains shown)
# VH: B2 VH with I27T, A32S, L33I, R37K, E41G, I50L, I57F, Q81H, G88E, M92V
# VL: DIQMTQSPASLSASVGETVTITCRTTENIYSYFVWSQQRQGKSPQLRVYNAKSLAEGVPSSFNVSVSGTQFSLKINSLQPEDFGTYHCQHHYGTPYTFGGGTRLEIRR
# B4: α-SNAP-25 monoclonal antibody 3C1A5 (antibody, V domains shown)
# VH: VKLQESGAELVKPGASVKISCKASGYTFTDHSIHWVKQKPGQGLEWIGYLFPGNGNFEYNEKFKGKATLTADKSSSTVYMYLNSLTSEDSAVYFCKRMGYWGQGTTVTVSS
# VL: DIKMTQSPSSMYASLGERVTITCKASQDIKSYLSWYQQKPWKSPKTLIYYATSLADGVPSRFSGSGSGQDYSLTISSLESDDTATYYCLQHGESPFTFGSGTKLEIKR
# Experiments:
# [1] = molecular target: T1, SNAP-25 peptide comprising amino acids 134-197 of SEQ ID NO: 5 (human); assay: SPR, comparison of the Kd values of Table 9
# [2] = molecular target: T1, SNAP-25 peptide comprising amino acids …; assay: SPR (BIAcore 3000), peptide amine-coupled to CM5 chip, antibody as analyte, 1:1 fit, first of two runs
# [3] = molecular target: T1, SNAP-25 peptide comprising amino acids …; assay: SPR (BIAcore 3000), peptide amine-coupled to CM5 chip, antibody as analyte, 1:1 fit, second independent run on another chip
# [4] = molecular target: T1, SNAP-25 peptide comprising amino acids …; assay: SPR, comparison of the KD values of Table 9
# [5] = molecular target: T1, SNAP-25 peptide comprising amino acids …; assay: SPR (BIAcore 3000), peptide amine-coupled to CM5 chip, antibody as analyte, 1:1 fit
# [6] = molecular target: SNAP-25 peptide comprising amino acids 134-197 of SEQ ID NO: 5 (human); assay: as above; remark: listed apart in the source
binder,measurement,setting,value
B1,fold slower off rate against MC-6050 and MC-6053,[1],> 1 fold
same,Kd,[2],0.09 nM
same,koff,[2],0.000153 s⁻¹
same,kon,[2],1.7e+06 M⁻¹ s⁻¹
same,Kd,[3],0.405 nM
same,koff,[3],6.74e-05 s⁻¹
same,kon,[3],166000 M⁻¹ s⁻¹
B2,fold difference of equilibrium disassociation constant against MC-6050 and MC-6053,[4],10 fold
same,Kd,[5],0.05 nM
same,koff,[5],5.78e-05 s⁻¹
same,kon,[5],1.06e+06 M⁻¹ s⁻¹
B3,Kd,[6],27.1 nM
same,koff,[6],0.000311 s⁻¹
same,kon,[6],11500 M⁻¹ s⁻¹
B4,Kd,[5],1.33 nM
same,koff,[5],0.000288 s⁻¹
same,kon,[5],217000 M⁻¹ s⁻¹
